# Laboratory results as given in publication PMC3868960.
# Target: tumor necrosis factor-related apoptosis-inducing ligand (TRAIL) (human) (UniProt P50591)
# Assay: non-reducing SDS-PAGE
substance,measurement,value
tumor necrosis factor-related apoptosis-inducing ligand (TRAIL) (from UniProt P50591 1-281),percent dimer,27.2%
same,percent monomer,70.1%
same,percent trimer,2.62%
